A word on the IC50: it is the concentration that gives 50% inhibition.

These results are taken from patent CN115232208A (SHANGHAI JUNSHI BIOSCIENCES CO LTD; JUNMENG BIOSCIENCES CO …, dated 2022).

Test [1] has as its target 人可溶性BLyS (human soluble BLyS) (human, UniProt Q9Y275 134-285). Description: cell-based or functional assay.
The target in test [2] is T1, 重组人BLyS蛋白 (recombinant human BLyS protein) (human, UniProt Q9Y275 134-285).
T1 construct: Recombinant human BLyS coated on hydrophobic ELISA plates; also called B淋巴细胞刺激因子; BAFF
T1 sequence (Q9Y275 134-285 limits assumed): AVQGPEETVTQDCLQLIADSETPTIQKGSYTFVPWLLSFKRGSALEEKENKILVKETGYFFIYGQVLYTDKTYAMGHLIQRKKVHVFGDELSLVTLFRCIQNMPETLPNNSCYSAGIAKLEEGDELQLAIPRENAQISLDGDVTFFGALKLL
In words: Blocking ELISA, human BLyS coated, competition with human BR3.

Sequence of 人可溶性BLyS (human soluble BLyS) (Q9Y275 134-285 limits assumed): as above

B1: H482L472 (antibody, human IgG1, kappa, V domains shown)
VH: EVQLVESGGGLVQPGGSLRLSCAASGFTFSDAWMDWVRQAPGKGLEWVGEIRNKANNHATYQAESVKGRFTISRDDSKNSVYLQMNSLKTEDTAVYYCTRAPFDLLVRRGYYIMDYWGQGTLVTVSS
VL: DIQMTQSPSSLSASVGDRVTITCRTSQDISIYLNWYQQKPGKAPKLLIYYTSRLRSGVPSRFSGSGSGTDFTLTISSLQPEDFATYFCQQGSTLPWTFGGGTKLEIKR
notes: also called UBP1213sc (its formulation); UBP1213
On to B1, for which, in test [1], the “IC50 of inhibition of the NF-κB signal downstream of human BLyS binding TACI (luciferase reporter gene assay)” value stood at 0.0376 µg/mL. The half-inhibitory concentration (IC50) in test [2] is 1.24 µg/mL.

B2: H483L473 (antibody, human IgG1, kappa, V domains shown)
VH: EVQLVESGGGLVKPGGSLRLSCAASGFTFSDAWMDWVRQAPGKGLEWVGEIRNKANNHATYQAESVKGRFTISRDDSKSTVYLQMNSLKTEDTAVYYCTRAPFDLLVRRGYYIMDYWGQGTLVTVSS
VL: DIQMTQSPSSLSASVGDRVTITCRTSQDISIYLNWYQQKPGKAPKLLIYYTSRLRSGVPSRFSGSGSGTDFTFTISSLQPEDIATYFCQQGSTLPWTFGGGTKLEIKR
For the molecule B2, the “IC50 of inhibition of the NF-κB signal downstream of human BLyS binding TACI (luciferase reporter gene assay)” value in test [1] worked out at 0.0293 µg/mL. In test [2], the IC50 is 0.858 µg/mL.

B3: H484L474 (antibody, human IgG1, kappa, V domains shown)
VH: EVQLVESGGGLVQPGGSLRLSCAASGFTFSDAWMDWVRQAPGKGLEWVAEIRNKANNHATYQAESVKGRFTISRDDSKSSVYLQMNSLRAEDTAVYYCTRAPFDLLVRRGYYIMDYWGQGTLVTVSS
VL: DIQMTQSPSSVSASVGDRVTITCRTSQDISIYLNWYQQKPGKAPKLLIYYTSRLRSGVPSRFSGSGSGTDFTLTISSLQPEDFATYFCQQGSTLPWTFGGGTKLEIKR
For B3, the “IC50 of inhibition of the NF-κB signal downstream of human BLyS binding TACI (luciferase reporter gene assay)” value in test [1] came to 0.0315 µg/mL. In addition, the IC50 in test [2] stood at 1.27 µg/mL.
